This note sets out measurements from patent US20240174716A1 (VACINO BIOTECH, published 2024).

T1 sequence (P02786 89-760 limits assumed): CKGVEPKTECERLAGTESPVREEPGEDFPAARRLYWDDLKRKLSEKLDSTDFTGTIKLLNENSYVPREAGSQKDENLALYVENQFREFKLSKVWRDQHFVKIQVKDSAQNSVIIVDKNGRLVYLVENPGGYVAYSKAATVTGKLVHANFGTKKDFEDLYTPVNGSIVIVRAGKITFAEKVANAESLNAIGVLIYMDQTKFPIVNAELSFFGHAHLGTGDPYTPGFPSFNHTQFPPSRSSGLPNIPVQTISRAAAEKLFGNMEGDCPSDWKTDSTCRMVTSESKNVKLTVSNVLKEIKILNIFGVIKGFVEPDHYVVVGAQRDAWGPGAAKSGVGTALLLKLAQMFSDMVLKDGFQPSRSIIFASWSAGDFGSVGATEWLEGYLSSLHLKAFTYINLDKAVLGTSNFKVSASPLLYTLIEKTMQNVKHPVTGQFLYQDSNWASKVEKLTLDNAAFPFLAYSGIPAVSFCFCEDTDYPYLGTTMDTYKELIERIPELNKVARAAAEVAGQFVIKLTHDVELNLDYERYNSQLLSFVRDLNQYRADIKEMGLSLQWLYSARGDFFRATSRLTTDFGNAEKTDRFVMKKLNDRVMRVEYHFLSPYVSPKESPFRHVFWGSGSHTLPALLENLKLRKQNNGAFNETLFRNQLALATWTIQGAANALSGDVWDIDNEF

This assay concerns the target T1, TfR protein (Acro Biosystems. Cat. No. CD1-H5243) (UniProt P02786 89-760).
T1 construct: Bought recombinant protein; also called TfR1; transferrin receptor
The experiment in a line: FOPPR (fiber optic particle plasmon resonance); peptide coupled to chip, TfR protein loaded at 0.5-1000 ng/mL. As for the experimental part: In this Example, the binding affinity of the transporter peptides disclosed herein to TfR was analyzed by fiber optic particle plasmon resonance (FOPPR). In this Example, different amino acid sites of the transporter peptide were further substituted with different amino acids of the same property to anaylze binding affinity of these variant peptides to the transferrin receptor.
To determine the affinity of the targeting peptide to TfR1, a fiber optic particle plasmon resonance (FOPPR) affinity study was performed according to the manufacturer's instruction. Briefly, 80 μL of tested peptide (10 μg/ml) dissolved in PBS buffer (pH 7.4) was pipetted into the EDC/NHS preactivated surface of standard chip NanoAu-MM (Taipei, Taiwan) for peptide conjugating to the carboxyl group of the surface sensor chip. TfR protein (Acro Biosystems. Cat. No. CD1-H5243, Newark, DE, USA) was loading to the chip with at the concentrations of 0.5 ng/mL, 1 ng/mL, 10 ng/mL, 100 ng/mL, 500 ng/mL, and 1000 ng/mL, respectively. Based on the light intensity change, the molecules interaction parameters of KD were calculated by the FOPPR system D200 (Id M3) (Taipei, Taiwan).
Regarding DISVLMKEYD (10-mer; also called transporter peptide) [PT-001], the Kd is 71 nM.

In turn, DISVLCKEYD (10-mer; also called transporter peptide) [PT-027] had a Kd of 0.27 nM.

DISVLMKESD (10-mer; also called transporter peptide) [PT-056] came in with a Kd of 4.1 nM. This Kd lies about 15-fold higher than the previous one.

On to DISVLSKEYD (10-mer; also called transporter peptide) [PT-051], for which binding was characterised by a dissociation constant (Kd) of 70 nM.

Consider DISVLQKEYD (10-mer; also called transporter peptide) [PT-030], for which binding was put at a Kd of 10.3 nM.

For DISVLMKEYQ (10-mer; also called transporter peptide) [PT-034], the affinity, expressed as Kd, was 39.3 nM.

Molecule DIDVLMKEYD (10-mer; also called transporter peptide) [PT-004] showed a Kd of 18.5 nM.

Take DILVLMKEYD (10-mer; also called transporter peptide) [PT-011]: the Kd worked out at 3.23 nM. This Kd is about 5.7-fold lower than that of the molecule before.

Regarding DISVLMKHYD (10-mer; also called transporter peptide) [PT-065], the Kd amounted to 0.57 nM.

Regarding DISVLEKEYD (10-mer; also called transporter peptide) [PT-029], the Kd amounted to 3.62 nM. This Kd lies about 6.4-fold higher than the previous one.

For the molecule DIPVLMKEYD (10-mer; also called transporter peptide) [PT-014], the Kd was 52.3 nM.

For DISVLMKEYE (10-mer; also called transporter peptide) [PT-033], the Kd amounted to 261 nM.

Turning to DISVLMKETD (10-mer; also called transporter peptide) [PT-057], the Kd was found to be 1.92 nM. This Kd is about 140-fold lower than that of the molecule before.

Molecule DISVLMKDYD (10-mer; also called transporter peptide) [PT-054] registered a Kd of 59.3 nM.

Molecule NISVLMKEYD (10-mer; also called transporter peptide) [PT-062] came in with a Kd of 1.3 nM.

As for DISVLMKEFD (10-mer; also called transporter peptide) [PT-055], the Kd turned out to be 6.08 nM.

DISELMKEYD (10-mer; also called transporter peptide) [PT-063] gave a Kd of 16.6 nM.

The molecule DISVVMKEYD (10-mer; also called transporter peptide) [PT-024] came in with a Kd of 8.22 nM.

The molecule DISVLNKEYD (10-mer; also called transporter peptide) [PT-026] had a Kd of 26 nM.

As for DISVLKKEYD (10-mer; also called transporter peptide) [PT-028], the Kd was 5.14 nM.

Turning to DIHVLDKEYD (10-mer; also called transporter peptide) [PT-067], the affinity, expressed as Kd, was 0.45 nM.

Molecule DISVIMKEYD (10-mer; also called transporter peptide) [PT-023] returned a Kd of 22.8 nM.

Regarding DISVLDKEYD (10-mer; also called transporter peptide) [PT-025], the Kd was 0.43 nM. This Kd lies about 53-fold lower than the previous one.

With DISVLMKEYN (10-mer; also called transporter peptide) [PT-031], the Kd turned out to be 4.45 nM.

As for DISVLLKEYD (10-mer; also called transporter peptide) [PT-064], the Kd is 10.5 nM.

Consider DIHVLMKEYD (10-mer; also called transporter peptide) [PT-008], for which the Kd came out at 8.07 nM.

DITVLMKEYD (10-mer; also called transporter peptide) [PT-017] yielded a Kd of 4.77 nM. This Kd is about 1.7-fold lower than that of the molecule before.

In turn, DISLLMKEYD (10-mer; also called transporter peptide) [PT-022] yielded a Kd of 36.6 nM. This Kd is about 7.7-fold higher than that of the molecule before.

The molecule DITVLCKEYN (10-mer; also called transporter peptide) [PT-066] came in with a Kd of 86.1 nM.
